Results: patent publication US20210032305A1 (KINDRED BIOSCIENCES, published 2021)
Substitutions are numbered along the chain they refer to.

B1: Feline EPO Analog 6-30 G18V87 mature form (Analog 6-30 GV Mature) (ligand)
chain: APPRLICDSRVLERYILGAREAENVTMGCNETCSFSENITVPDTKVNFYTWKRMDVGQQAVEVWQGLALLSEAILRGQALLANSSQVNETLQLHVDKAVSSLRSLTSLLRALGAQKEATSLPEATSAAPLRTFTVDTLCKLFRIYSNFLRGKLTLYTGEACRRGDR
modifications: N-linked glycosylated and sialylated (CHO DG-44 expressed); fraction not specified in this assay
notes: also called feline EPO Analog 6-30 GV Mature
B2: Analog 6-30 EV Mature (acidic fraction) (ligand)
chain: B1 chain with G18E
modifications: N-linked glycosylated; high sialylation (acidic fraction)
notes: Same polypeptide as m4; glycoform fraction; In ELISA 2 it was treated with neuraminidase first; also called acidic (high sialylation) fraction of Analog 6-30 EV Mature
B3: Feline EPO Analog 6-30 E18V87 mature form (Analog 6-30 EV Mature) (ligand)
chain: B1 chain with G18E
modifications: N-linked glycosylated and sialylated (CHO DG-44 expressed); fraction not specified in this assay
notes: also called Feline Analog 6-30 EV Mature; Sample 1
B4: Analog 6-30 GV Mature (acidic fraction) (ligand)
chain: B1 chain
modifications: N-linked glycosylated; high sialylation, isoelectric point range of about 2 to about 3.5
notes: Same polypeptide as m1; glycoform fraction; In ELISA 2 it was treated with neuraminidase first; also called acidic (high sialylation) fraction of Analog 6-30 GV Mature
B5: Analog 6-30 GV Mature (basic fraction) (ligand)
chain: B1 chain
modifications: N-linked glycosylated; low sialylation, isoelectric point range of about 4 to about 5 (Example 15), about 3.5 to about 5 (Example 6)
notes: Same polypeptide as m1; glycoform fraction; In ELISA 2 it was treated with neuraminidase first; also called basic (low sialylation) fraction of Analog 6-30 GV Mature

How the values were obtained:
human EPOR on TF-1 cells = molecular target: T1, human EPOR on TF-1 cells (human, UniProt P19235 25-508); assay: cell-based or functional assay
T1 sequence (looked up): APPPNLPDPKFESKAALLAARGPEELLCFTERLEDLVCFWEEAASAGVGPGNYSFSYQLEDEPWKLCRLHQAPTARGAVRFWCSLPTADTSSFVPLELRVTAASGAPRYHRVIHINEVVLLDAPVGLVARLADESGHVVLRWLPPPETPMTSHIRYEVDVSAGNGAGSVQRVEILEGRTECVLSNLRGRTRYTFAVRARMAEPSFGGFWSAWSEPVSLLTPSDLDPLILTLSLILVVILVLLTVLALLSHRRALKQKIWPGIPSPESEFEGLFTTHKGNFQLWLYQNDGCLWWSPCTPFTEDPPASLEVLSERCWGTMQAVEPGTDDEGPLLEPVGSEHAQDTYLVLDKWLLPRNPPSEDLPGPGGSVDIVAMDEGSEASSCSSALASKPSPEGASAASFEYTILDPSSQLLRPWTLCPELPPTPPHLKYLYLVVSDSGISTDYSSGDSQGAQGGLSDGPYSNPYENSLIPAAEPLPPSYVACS

[1] = molecular target: T2, human EPOR-Fc (Catalog No. 963-ER-050, R&D Systems) (human, UniProt P19235 25-250, biotinylated in Example 10 only); assay: biolayer interferometry (ForteBio); biotinylated human EPOR on streptavidin tips, EPO analog 20-0.25 nM, 1:1 fit
T2 construct: extracellular domain; treated as one molecule; also called extracellular domain of human EPOR; human EPO receptor; not shown: Fc part of the bought EPOR-Fc
T2 sequence (looked up): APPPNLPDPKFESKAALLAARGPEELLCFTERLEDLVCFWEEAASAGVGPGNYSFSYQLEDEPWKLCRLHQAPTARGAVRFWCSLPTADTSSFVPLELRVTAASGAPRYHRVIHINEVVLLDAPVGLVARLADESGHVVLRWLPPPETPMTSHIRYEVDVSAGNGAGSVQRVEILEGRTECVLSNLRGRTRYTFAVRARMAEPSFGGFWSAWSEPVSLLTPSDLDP
Source text: Dissociation was monitored for 600 seconds. A buffer only blank curve was subtracted to correct for any drift.

[2] = molecular target: T3, Feline EPOR201_ECD_human Fc (feline EPOR fused to human Fc, biotinylated with EZ-Link NHS-LC-biotin); assay: biolayer interferometry (ForteBio); biotinylated receptor-Fc on streptavidin tips, EPO analog 150-1.9 nM, 1:1 fit
T3 construct: also called fEPOR201_ECD-Fc; feline EPOR201-ECD-Fc
T3 sequence (chain, as listed by the source limits assumed): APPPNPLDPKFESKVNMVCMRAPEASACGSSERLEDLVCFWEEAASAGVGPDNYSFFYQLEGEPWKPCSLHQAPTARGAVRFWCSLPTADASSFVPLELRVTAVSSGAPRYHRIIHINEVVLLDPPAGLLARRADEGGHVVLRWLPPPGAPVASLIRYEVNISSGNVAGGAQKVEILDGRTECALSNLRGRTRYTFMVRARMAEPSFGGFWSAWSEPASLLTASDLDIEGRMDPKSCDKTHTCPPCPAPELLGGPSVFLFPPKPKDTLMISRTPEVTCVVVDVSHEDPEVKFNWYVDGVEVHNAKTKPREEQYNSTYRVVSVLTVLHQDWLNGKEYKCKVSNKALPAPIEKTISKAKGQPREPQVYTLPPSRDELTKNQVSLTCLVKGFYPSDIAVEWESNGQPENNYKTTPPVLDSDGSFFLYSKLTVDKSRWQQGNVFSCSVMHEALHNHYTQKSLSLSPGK
Procedure: (§1) The binding analysis was performed as follows. Briefly, fEPOR201_ECD-Fc and fEPOR202_ECD-Fc were biotinylated using EZ-Link NHS-LC-biotin (Catalog No. 21336, Thermo Scientific). The free unreacted biotin was removed by dialysis. Biotinylated fEPOR201_ECD-Fc and fEPOR202_ECD-Fc were captured on streptavidin sensor tips (Catalog No. 18-509, ForteBio).
(§2) Dissociation was monitored for 600 seconds. A buffer only blank curve was subtracted to correct for any drift. The data were fit to a 1:1 binding model using ForteBio™ data analysis software to determine the kₒₙ (association rate constant), koff (dissociation rate constant) and the Kd (dissociation constant). […] The buffer for dilutions and all binding steps was: 200 mM phosphate, 150 mM NaCl, 0.02% Tween-20, 0.05% sodium azide, and 0.1 mg BSA, pH7.4.

[3] = molecular target: T4, Feline EPOR202_ECD_human Fc (feline EPOR fused to human Fc, biotinylated with EZ-Link NHS-LC-biotin); assay: as above
T4 construct: also called fEPOR202_ECD-Fc; feline EPOR202-ECD-Fc
T4 sequence (chain, as listed by the source limits assumed): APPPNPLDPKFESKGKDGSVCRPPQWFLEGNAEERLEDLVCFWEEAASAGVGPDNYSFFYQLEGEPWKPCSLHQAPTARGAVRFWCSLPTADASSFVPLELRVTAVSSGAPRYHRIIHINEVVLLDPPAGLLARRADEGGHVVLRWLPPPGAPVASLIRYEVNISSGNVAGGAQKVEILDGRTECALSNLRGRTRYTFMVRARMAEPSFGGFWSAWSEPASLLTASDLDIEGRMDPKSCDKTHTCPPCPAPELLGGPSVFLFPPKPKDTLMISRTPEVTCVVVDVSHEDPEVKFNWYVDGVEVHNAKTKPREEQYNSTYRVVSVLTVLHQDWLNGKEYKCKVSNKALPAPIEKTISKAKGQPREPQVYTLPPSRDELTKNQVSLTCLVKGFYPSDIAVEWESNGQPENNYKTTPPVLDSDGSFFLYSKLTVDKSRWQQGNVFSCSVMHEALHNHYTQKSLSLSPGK
Procedure: as §1, §2

[4] = molecular target: T2, human EPOR-Fc (Catalog No. 963-ER-050, …); assay: ELISA 2: as ELISA 1, EPO sample treated with neuraminidase first
Procedure: (§3) A 96-well plate was coated with a mouse anti-EPO specific antibody (Catalog No. MAB287, clone 9C21D11, R&D Systems) to capture the EPO polypeptides. The EPO-bound wells were incubated with human EPOR-Fc at a concentration of 200 ng/mL and the bound EPOR was detected by anti-human Fc HRP conjugated antibody. The ELISA was performed a second time, but the three samples of EPO polypeptides were first treated with neuraminidase to remove the sialic acid.

[5] = molecular target: T2, human EPOR-Fc (Catalog No. 963-ER-050, …); assay: ELISA 1: EPO analog captured by mouse anti-EPO antibody (MAB287), human EPOR-Fc at 200 ng/mL, anti-human Fc HRP
Procedure: as §3

[6] = molecular target: T5, Feline EPOR203_39A_ECD_Fc (feline EPOR fused to human Fc); assay: sandwich ELISA: plate coated with anti-human EPO antibody, Analog 6-30 EV Mature captured in 2-fold dilutions from 500 ng/mL, feline EPOR203_39A_ECD_Fc added at 200 ng/mL, detected with anti-human Fc HRP; 4-parameter fit. The axis 'Conc' prints no unit; ng/mL is from paragraph 333
T5 construct: also called feline EPOR203-ECD-Fc; fEPOR203_ECD-Fc
T5 sequence (chain, as listed by the source limits assumed): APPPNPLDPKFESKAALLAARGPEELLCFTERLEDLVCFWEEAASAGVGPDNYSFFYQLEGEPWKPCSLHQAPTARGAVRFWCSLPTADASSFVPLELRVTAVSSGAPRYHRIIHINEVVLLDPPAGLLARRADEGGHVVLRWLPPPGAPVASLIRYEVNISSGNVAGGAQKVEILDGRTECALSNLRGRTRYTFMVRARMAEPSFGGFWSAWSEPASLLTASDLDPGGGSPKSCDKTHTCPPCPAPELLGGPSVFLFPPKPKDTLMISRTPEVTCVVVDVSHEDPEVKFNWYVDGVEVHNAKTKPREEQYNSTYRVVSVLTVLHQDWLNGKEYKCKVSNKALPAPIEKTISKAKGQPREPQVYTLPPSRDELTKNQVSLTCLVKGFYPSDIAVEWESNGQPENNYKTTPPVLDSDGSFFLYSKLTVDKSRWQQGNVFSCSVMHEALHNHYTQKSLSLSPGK
Procedure: Feline EPOR203_39A_ECD_Fc (200 ng/mL in 1% BSA-PBST buffer) was added to each well and binding allowed to proceed for 1 hour at room temperature. A rabbit anti-human Fc antibody and horseradish peroxidase (HRP) conjugate (0.2 μg/mL) was used for detection and left in the wells for 1 hour at room temperature. 3,3,5,5′-Tetramethylbenzidine (TMB) was applied to the wells as the HRP substrate and kept in the well for 5 to 7 minutes for signal development.

Binder | EC50, TF-1 cell proliferation (MTT) (human EPOR on TF-1 cells) | EC50 [4] [mg/L] | EC50 [5] [mg/L] | other results
B1 | 0.3 IU/mL | – | – | Kd [1]: 0.0976 nM; Kd [2]: 0.4 nM; Kd [3]: 0.17 nM
B2 | – | 0.02 | 0.045 | –
B3 | 0.00478 mg/L | – | – | EC50 [6]: 0.088 mg/L
B4 | – | 0.018 | 0.1 | –
B5 | – | 0.031 | 0.035 | –
